Measurements reported in paper PMC3526836.
Changes are numbered by the printed parent chain. Names and notes keep the numbering of the source.

B1: NHERF1 PDZ1 domain (N-terminal PDZ domain of NHERF1/EBP50), wild type (domain or fragment)
chain: LPRLCCLEKGPNGYGFHLHGEKGKLGQYIRLVEPGSPAEKAGLLAGDRLVEVNGENVEKETHQQVVSRIRAALNAVRLLVVDPETDEQL
B2: NHERF1 PDZ1 domain K32A/K34A (domain or fragment)
chain: B1 chain with K22A, K24A
B3: NHERF1 PDZ1 domain Y38A/R40A (domain or fragment)
chain: B1 chain with Y28A, R30A

Target: C-terminal peptide of cystic fibrosis transmembrane conductance regulator (CFTR), F-Ahx-VQDTLR
Assay: fluorescence polarisation

Row | Binder | Kd [µM]
1 | B1 | 13
2 | B2 | 13
3 | B3 | 14
